From patent publication US20220289850 (published 2022)
Several values for one entry are separate records, joined by “and”; a condition that tells them apart may be missing. Equal values may be shown once.

T1: mouse integrin avb8 (mouse)
T1 chain 1: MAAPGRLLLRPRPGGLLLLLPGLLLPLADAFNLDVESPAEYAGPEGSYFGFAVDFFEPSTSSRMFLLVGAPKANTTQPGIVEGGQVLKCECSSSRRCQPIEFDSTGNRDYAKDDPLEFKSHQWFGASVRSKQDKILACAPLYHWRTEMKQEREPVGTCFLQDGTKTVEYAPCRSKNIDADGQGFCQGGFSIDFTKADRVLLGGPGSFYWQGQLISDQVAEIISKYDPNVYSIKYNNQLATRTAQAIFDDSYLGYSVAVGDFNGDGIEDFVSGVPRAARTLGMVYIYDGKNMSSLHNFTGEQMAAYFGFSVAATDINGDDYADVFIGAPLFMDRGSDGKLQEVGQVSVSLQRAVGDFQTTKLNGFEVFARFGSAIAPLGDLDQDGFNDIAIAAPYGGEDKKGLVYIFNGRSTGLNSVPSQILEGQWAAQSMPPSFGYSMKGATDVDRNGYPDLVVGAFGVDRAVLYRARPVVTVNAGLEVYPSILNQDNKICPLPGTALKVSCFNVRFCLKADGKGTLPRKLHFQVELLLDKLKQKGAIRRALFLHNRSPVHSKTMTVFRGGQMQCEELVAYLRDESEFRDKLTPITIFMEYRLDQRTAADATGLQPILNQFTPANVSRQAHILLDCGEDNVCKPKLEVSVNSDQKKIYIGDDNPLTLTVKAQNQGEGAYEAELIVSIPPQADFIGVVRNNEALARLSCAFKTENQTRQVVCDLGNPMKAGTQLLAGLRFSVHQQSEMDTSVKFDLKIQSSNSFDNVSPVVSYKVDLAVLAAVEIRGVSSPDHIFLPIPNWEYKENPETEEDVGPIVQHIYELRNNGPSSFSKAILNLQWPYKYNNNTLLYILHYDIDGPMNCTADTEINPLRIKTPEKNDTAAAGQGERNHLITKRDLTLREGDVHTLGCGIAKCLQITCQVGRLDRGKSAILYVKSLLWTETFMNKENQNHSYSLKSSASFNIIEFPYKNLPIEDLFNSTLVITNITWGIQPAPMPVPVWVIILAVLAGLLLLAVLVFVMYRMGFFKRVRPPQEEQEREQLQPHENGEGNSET
T1 chain 2: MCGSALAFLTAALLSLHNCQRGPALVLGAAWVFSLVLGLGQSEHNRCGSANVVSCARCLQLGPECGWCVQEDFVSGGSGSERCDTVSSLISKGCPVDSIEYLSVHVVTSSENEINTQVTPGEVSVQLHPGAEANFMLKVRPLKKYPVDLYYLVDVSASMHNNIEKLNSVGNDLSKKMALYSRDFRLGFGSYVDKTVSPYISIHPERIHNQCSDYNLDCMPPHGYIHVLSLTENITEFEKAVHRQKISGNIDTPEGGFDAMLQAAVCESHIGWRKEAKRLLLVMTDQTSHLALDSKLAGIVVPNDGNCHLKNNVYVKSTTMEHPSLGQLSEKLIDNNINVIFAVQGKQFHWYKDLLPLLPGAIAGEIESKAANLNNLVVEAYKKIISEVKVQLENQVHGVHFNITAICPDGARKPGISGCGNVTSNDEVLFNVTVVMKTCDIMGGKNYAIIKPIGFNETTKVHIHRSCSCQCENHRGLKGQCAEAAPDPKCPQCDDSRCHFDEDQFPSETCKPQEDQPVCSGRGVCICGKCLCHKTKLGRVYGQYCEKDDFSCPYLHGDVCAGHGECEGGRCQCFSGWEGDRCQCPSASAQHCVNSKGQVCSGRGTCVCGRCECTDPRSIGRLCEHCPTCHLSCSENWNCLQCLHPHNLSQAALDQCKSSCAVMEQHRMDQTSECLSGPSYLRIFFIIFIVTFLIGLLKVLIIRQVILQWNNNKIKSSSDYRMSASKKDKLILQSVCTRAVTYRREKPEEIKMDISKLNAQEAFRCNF


Molecular target: T1, mouse integrin avb8
Assay: SPR 25C

Kd | Binder
< 0.1 nM and 0.137 nM | ADWA11 VH05/VK01 (VH05-2_VK01) Fab (antibody, V domains shown) VH: EVQLVESGGGLVQPGGSLRLSCAASGFNIKDYYMNWVRQAPGKGLEWVGWIDPDNGNTIYDPKFQGRFTISADTSKNSAYLQMNSLRAEDTAVYYCARRLLMDYWGQGTLVTVSS VL: DIQMTQSPSSLSASVGDRVTITCRSTKSLLHFNGNTYLFWYQQKPGKAPKRLIYYMSNLASGVPSRFSGSGSGTDFTLTISSLQPEDFATYYCMQSLEYPFTFGQGTKVEIK
< 0.2 nM | ADWA11 2.4 Fab (antibody, V domains shown) VH: EVQLVESGGGLVQPGGSLRLSCAASGFNIKDYYMNWVRQAPGKGLEWVGWIDPDQGNTIYEPKFQGRFTISADTSKNSAYLQMNSLRAEDTAVYYCARRLLMDYWGQGTLVTVSS VL: DIQMTQSPSSLSASVGDRVTITCRSTKSLSHFNGNTYLFWYQQKPGKAPKRLIYYMSSLASGVPSRFSGSGSGTDFTLTISSLQPEDFATYYCQQSLEYPFTFGGGTKVEIK
0.489 nM | Mouse hybridoma ADWA-11 Fab (antibody, V domains shown) VH: EVQLQQSGAELVRPGAFVKLSCKASGFNIKDYYMNWVLQRPEQGLEWIGWIDPDNGNTIYDPKFQGKASITADTSSNTAYLQLSSLTSEDTAVYYCARRLLMDYWGQGTSVTVSS VL: DIVMTQAAPSVPVTPGESVSISCRSTKSLLHFNGNTYLFWFLQRPGQSPQRLIYYMSNLASGVPDRFSGRGSGTDFTLRISRVEAEDVGVYYCMQSLEYPFTFGTGTKLEIK
